Where no end group is shown, it is not given here.
How the values were obtained:
[1] = biological target: T1, PKC-βII (purified isoform) (Homo sapiens (Human), UniProt P05771 2-621); assay: competitive ELISA on purified PKC-βII vs anti-PKC-βII Ab; PRE 50 µM
T1 construct: also called PKC-beta II
Protocol: (§1) Greiner 96 well ELISA plates were coated with the appropriate PKC isoform diluted in PBSN (PBS with Calcium/Magnesium+0.05% Sodium azide w/w). 50 μL/well at 250 ng/mL was used. Control wells contained PBSN only. Plates were incubated overnight at 4° C.
(§2) The plates were washed 3 times with 200 μL of dH₂O per well, then 100 μL of blocking solution was added per well and the plate incubated for 1 h at 37° C. The washing steps with dH₂O were repeated and 50 μL of the appropriate PRE solution (PRE stock solution [20 mM in DMSO] diluted in PBSN) was added and the plate incubated for 1 h at room temperature.
(§3) 50 μL of 1:1000 dilution of Alkaline Phosphatase (AP) conjugated antibody (anti-rabbit for all except zeta, which was anti-goat) was then added and the plate incubated for 1 h at room temperature. Washing with dH₂O was then repeated. Finally, 100 μL of pNPP solution in pNPP buffer (2 mM MgCl₂, 100 mM Sodium bicarbonate in water, pH 9.8) was added to all wells and incubated for 8 minutes for α, βI, βII ε, and ζ, or for 15-20 mins for […] (until sufficient coloration is observed). The reaction was stopped by addition of Stop solution (2N NaOH) and the absorbance at 405 nm was read on a Galaxy Plate reader.

[2] = biological target: T1, PKC-βII (purified isoform); assay: competitive ELISA on purified PKC-βII vs anti-PKC-βII Ab; PRE 100 µM
Protocol: as §1, §2, §3

[3] = biological target: T1, PKC-βII (purified isoform); assay: competitive ELISA on purified PKC-βII vs anti-PKC-βII Ab; PRE 200 µM
Protocol: as §1, §2, §3

[4] = biological target: T2, PKC-α (endogenous, human cell lysates and cells) (human, UniProt P17252 2-672); assay: anti-PKC-α immunofluorescence, V5E-transfected IMR-32 cells loaded with PRE (label on PKC-α and V5E); control with endocytosis reagent 113
T2 construct: Endogenous protein of human cell lysates, on Western blot membranes (denatured) or in fixed cells; also called PKC-alpha; PKC-A
Excerpt: Neuroblastoma cells from the IMR-32 cell line were stably transfected with a vector containing the V5E sequence of PKC-α as outlined above in Example 13. The V5E sequence is part of the antigenic amino acid sequence that is used to raise the commercially available anti-PKC-α isoform-specific antibody.
The peptides PRE 1, 2, 3, 4, 5, 6, 7, 8, 9, 10, 11, 12 and 13 (see Table 3) were incorporated into the transfected IMR-32 cells via pinocytic endocytosis (Molecular Probes) according to the supplier's recommendations. Following fixation and permeabilization, PKC-α was detected using an Alexa fluor secondary antibody (as described above in Example 8).

[5] = biological target: T3, PKC-ζ (purified isoform) (Homo sapiens (Human), UniProt Q05513 1-592); assay: summary grade, purified isoform ELISA
T3 construct: also called PKC-zeta; PKCzeta
T3 sequence: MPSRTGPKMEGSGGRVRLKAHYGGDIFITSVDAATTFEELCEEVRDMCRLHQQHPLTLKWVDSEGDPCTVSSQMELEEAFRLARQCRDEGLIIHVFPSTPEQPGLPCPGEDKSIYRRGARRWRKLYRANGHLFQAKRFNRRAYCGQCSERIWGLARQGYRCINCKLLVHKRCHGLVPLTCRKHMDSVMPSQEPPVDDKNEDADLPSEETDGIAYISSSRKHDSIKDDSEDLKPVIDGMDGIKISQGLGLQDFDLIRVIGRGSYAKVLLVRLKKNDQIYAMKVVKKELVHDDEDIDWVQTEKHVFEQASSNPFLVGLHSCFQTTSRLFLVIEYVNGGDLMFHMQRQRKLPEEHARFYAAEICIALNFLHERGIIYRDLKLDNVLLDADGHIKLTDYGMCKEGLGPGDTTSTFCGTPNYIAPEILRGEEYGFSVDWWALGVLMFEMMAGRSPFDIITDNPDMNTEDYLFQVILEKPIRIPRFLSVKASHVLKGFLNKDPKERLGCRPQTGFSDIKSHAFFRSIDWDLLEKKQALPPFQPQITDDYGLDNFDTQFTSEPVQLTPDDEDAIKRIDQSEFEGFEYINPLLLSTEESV

[6] = biological target: T4, PKC-δ (purified isoform) (Homo sapiens (Human), UniProt Q05655 1-676); assay: competitive ELISA on purified PKC-δ vs anti-PKC-δ Ab; PRE 50 µM
T4 construct: also called PKC-delta; PKCdelta
Protocol: as §1, §2, §3

[7] = biological target: T3, PKC-ζ (purified isoform); assay: competitive ELISA on purified PKC-ζ vs anti-PKC-ζ Ab; PRE 50 µM
Protocol: as §1, §2, §3

[8] = biological target: T4, PKC-δ (purified isoform); assay: competitive ELISA on purified PKC-δ vs anti-PKC-δ Ab; PRE 100 µM
Protocol: as §1, §2, §3

[9] = biological target: T4, PKC-δ (purified isoform); assay: competitive ELISA on purified PKC-δ vs anti-PKC-δ Ab; PRE 200 µM
Protocol: as §1, §2, §3

[10] = biological target: T3, PKC-ζ (purified isoform); assay: competitive ELISA on purified PKC-ζ vs anti-PKC-ζ Ab; PRE 100 µM
Protocol: as §1, §2, §3

[11] = biological target: T3, PKC-ζ (purified isoform); assay: competitive ELISA on purified PKC-ζ vs anti-PKC-ζ Ab; PRE 200 µM
Protocol: as §1, §2, §3

[12] = biological target: T5, PKC-ε (endogenous, human cell extracts) (human, UniProt Q02156 1-737); assay: Protocol B blot competition, IMR-32 extract, competitor anti-PKC-ε Ab, Band 1; PRE 20 µg
T5 construct: Two bands on the blot, said to be alternate splicing variants; also called PKC-epsilon; PKC-ε Band 1
T5 sequence (looked up): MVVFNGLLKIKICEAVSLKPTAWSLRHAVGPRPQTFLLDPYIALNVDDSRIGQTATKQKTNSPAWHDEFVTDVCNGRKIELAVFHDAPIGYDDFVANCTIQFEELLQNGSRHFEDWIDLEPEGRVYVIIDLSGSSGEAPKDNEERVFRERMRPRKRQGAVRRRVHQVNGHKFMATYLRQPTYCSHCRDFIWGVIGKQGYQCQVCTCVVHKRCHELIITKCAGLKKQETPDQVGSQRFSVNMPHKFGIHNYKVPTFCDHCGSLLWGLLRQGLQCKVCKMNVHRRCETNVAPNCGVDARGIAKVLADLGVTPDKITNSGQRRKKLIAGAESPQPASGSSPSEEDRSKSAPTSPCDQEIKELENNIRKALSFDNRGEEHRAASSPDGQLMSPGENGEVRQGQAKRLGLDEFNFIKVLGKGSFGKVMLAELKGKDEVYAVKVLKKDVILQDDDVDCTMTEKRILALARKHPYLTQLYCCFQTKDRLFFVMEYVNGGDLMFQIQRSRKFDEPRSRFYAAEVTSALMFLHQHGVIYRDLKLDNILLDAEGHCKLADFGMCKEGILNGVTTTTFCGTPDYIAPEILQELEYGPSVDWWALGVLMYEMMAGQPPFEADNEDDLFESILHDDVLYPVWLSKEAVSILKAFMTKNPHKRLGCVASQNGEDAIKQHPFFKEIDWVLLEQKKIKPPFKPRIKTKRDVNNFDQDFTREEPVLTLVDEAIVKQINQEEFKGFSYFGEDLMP
Protocol: (§4) The ability of the peptides PRE 2 and PRE 3 (see Table 3) to interfere with the binding of a PKC-α-specific polyclonal antibody (Santa Cruz Biotechnology, Inc.) to PKC-α was determined using a modified version of the protocol outlined above in which the test peptide was added directly to the cell extract prior to electrophoresis at a concentration of either 5× or 15× the concentration of the protein applied to each well of the gel for the Western blots (20 μg).
(§5) Peptides PRE 2, PRE 3 and PRE 4 (see Table 3) were tested for their ability to interfere with the binding of isoform-specific polyclonal antibodies (Santa Cruz Biotechnology, Inc.) to PKC-ε using the general protocol described in Example 3. Two bands, representing alternate splicing variants of PKC-ε, were identified on the Western blot using this anti-PKC-ε antibody.

[13] = biological target: T5, PKC-ε (endogenous, human cell extracts); assay: Protocol B blot competition, IMR-32 extract, competitor anti-PKC-ε Ab, Band 1; PRE 50 µg
Protocol: as §4, §5

[14] = biological target: T5, PKC-ε (endogenous, human cell extracts); assay: Protocol B blot competition, IMR-32 extract, competitor anti-PKC-ε Ab, Band 2; PRE 20 µg
Protocol: as §4, §5

[15] = biological target: T5, PKC-ε (endogenous, human cell extracts); assay: Protocol B blot competition, IMR-32 extract, competitor anti-PKC-ε Ab, Band 2; PRE 50 µg
Protocol: as §4, §5

[16] = biological target: T5, PKC-ε (endogenous, human cell extracts); assay: Protocol B blot competition, IMR-32 extract, competitor anti-PKC-ε Ab, Band 1; PRE 100 µg
Protocol: as §4, §5

[17] = biological target: T5, PKC-ε (endogenous, human cell extracts); assay: Protocol B blot competition, IMR-32 extract, competitor anti-PKC-ε Ab, Band 2; PRE 100 µg
Protocol: as §4, §5

T4 sequence (Q05655 whole entry, stated change not applied, canonical isoform): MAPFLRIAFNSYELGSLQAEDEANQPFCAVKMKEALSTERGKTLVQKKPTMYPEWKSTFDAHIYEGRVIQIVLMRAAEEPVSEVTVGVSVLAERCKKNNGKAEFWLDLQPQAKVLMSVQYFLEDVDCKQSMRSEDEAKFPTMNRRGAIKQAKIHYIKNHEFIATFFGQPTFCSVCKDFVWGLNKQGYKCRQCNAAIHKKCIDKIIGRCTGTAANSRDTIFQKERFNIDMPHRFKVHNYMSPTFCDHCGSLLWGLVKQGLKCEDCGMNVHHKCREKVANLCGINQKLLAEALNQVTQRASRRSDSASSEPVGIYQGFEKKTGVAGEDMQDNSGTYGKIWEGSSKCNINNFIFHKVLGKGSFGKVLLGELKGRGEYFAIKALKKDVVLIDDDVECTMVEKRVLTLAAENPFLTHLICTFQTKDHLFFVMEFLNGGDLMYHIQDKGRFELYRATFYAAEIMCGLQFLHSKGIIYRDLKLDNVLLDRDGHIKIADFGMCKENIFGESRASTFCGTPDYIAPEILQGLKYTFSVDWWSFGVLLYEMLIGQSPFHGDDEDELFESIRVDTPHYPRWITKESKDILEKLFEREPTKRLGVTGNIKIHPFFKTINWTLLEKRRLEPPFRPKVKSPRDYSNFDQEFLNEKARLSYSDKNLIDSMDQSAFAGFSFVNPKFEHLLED
T1 sequence (P05771 other isoform, or with tags, fused parts or gaps limits assumed): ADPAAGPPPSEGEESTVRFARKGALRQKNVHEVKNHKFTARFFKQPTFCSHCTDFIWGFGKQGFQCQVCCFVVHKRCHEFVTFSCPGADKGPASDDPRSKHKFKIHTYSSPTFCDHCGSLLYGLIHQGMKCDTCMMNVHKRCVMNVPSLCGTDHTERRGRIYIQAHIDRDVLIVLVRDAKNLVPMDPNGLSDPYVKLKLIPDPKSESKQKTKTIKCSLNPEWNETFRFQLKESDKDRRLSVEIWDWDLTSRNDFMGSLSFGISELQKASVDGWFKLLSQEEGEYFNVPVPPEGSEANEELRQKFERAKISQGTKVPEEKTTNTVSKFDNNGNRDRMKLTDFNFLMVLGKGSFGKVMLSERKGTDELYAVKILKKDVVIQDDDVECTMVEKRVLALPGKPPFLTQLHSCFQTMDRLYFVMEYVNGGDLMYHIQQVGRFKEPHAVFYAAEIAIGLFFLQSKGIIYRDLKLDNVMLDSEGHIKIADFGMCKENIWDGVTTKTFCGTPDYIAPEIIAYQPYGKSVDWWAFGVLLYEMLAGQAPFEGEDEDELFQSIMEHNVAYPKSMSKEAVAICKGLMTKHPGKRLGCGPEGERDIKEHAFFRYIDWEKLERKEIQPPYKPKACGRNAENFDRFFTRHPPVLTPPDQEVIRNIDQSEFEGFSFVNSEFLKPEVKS

B1: PRE 10 (peptide)
peptide: Ac-ISIGILNQADK-NH2
notes: Synthetic peptide; also called peptide PRE 10
binding capacity (%) [1]: 0% | binding capacity (%) [2]: 0% | binding capacity (%) [3]: 0% | Relative Fluorescence Intensity [4]: 122

B2: PRE 8 (peptide)
peptide: ILEDKGGDAQNLIGISI
notes: Synthetic peptide; termini given free; also called peptide PRE 8
binding result [5]: no binding (tested: 200 µM) | binding capacity (%) [6]: 6.96% | binding capacity (%) [7]: 0% | binding capacity (%) [8]: 3.38% | binding capacity (%) [9]: 6.68% | binding capacity (%) [10]: 0% | binding capacity (%) [11]: 0% | Relative Fluorescence Intensity [4]: 81

B3: PRE 2 (peptide)
peptide: KDAQNLIGISL-NH2
notes: Synthetic peptide; also called peptide PRE 2
band intensity [12]: 323 | inhibition (%) [12]: 23.4% | relative intensity (%) [12]: 76.6% | band intensity [13]: 0 | inhibition (%) [13]: 100% | relative intensity (%) [13]: 0% | band intensity [14]: 160 | inhibition (%) [14]: 38.6% | relative intensity (%) [14]: 61.4% | band intensity [15]: 0 | inhibition (%) [15]: 100% | relative intensity (%) [15]: 0% | band intensity [16]: 0 | inhibition (%) [16]: 100% | relative intensity (%) [16]: 0% | band intensity [17]: 0 | inhibition (%) [17]: 100% | relative intensity (%) [17]: 0%

B4: PRE 5 (peptide)
peptide: Ac-AKGIQEVKGGKDAQNLIGISI-NH2
notes: Synthetic peptide; also called peptide PRE 5
binding capacity (%) [6]: 0.2% | binding capacity (%) [8]: 0% | binding capacity (%) [9]: 4.31% | Relative Fluorescence Intensity [4]: 124

Source: patent publication US20100041597A1 (published 2010)
